From article PMC10569748
“And” between values parts separate entries of the source, which are not always exact repeats. Identical values can stand only once.

Assays:
Cys = assay: kinetics; conditions: free enzyme; cited from earlier work
His = assay: kinetics; conditions: free enzyme; cited from earlier work
Cys25 [1] = biological target: T1, Cys25 (UniProt position 147, GQCGSCWAFSA); assay: kinetics; conditions: 25 °C; 0.1 (constant); free enzyme (kcat/Km profile)
His162 [2] = biological target: T2, His162 (UniProt position 284, SEQLDHGVLLV); assay: kinetics; conditions: free enzyme (kcat/Km profile)
Cys25 [3] = biological target: T1, Cys25; assay: chemical modification; conditions: 25 °C (general statement for all assays); ligand-free enzyme
His162 [4] = biological target: T2, His162; assay: NMR; conditions: Cys25 covalently modified by K11777; cited from earlier work
Cys25 [5] = biological target: Cys25 (UniProt position 158, GSCGSCWAFSA); assay: chemical modification; conditions: free enzyme; cited from earlier work
His159 = His159 (UniProt position 292, GNKVDHAVAAV); assay: chemical modification; conditions: free enzyme; cited from earlier work
[6] = test system: Cc1cc(=O)oc2cc(NC(=O)[C@H](C)NC(=O)[C@H](CCCNC(=N)N)NC(=O)OCc3ccccc3)ccc12; assay: purified protein; conditions: pH 7.5, 25 °C, 2% DMSO, 5 mM DTT, 1 mM CHAPS, 1 mM EDTA
[7] = test system: Cc1cc(=O)oc2cc(NC(=O)[C@H](CCCNC(=N)N)NC(=O)[C@H](CCCNC(=N)N)NC(=O)OCc3ccccc3)ccc12; assay: purified protein; conditions: pH 7.5, 25 °C, 2% DMSO, 5 mM DTT, 1 mM CHAPS, 1 mM EDTA
[8] = test system: Cc1cc(=O)oc2cc(NC(=O)[C@H](CCCNC(=N)N)NC(=O)[C@H](Cc3ccccc3)NC(=O)OCc3ccccc3)ccc12; assay: purified protein; conditions: pH 7.5, 25 °C, 2% DMSO, 5 mM DTT, 1 mM CHAPS, 1 mM EDTA

Cathepsin C (dipeptidyl peptidase I) (Homo sapiens)
pKa (Cys): 4.3
pKa (His): 6.5

Cruzain (cruzipain catalytic domain) (Trypanosoma cruzi)
pKa (Cys25 [1]): 9.6 ± 0.1
pKa (His162 [2]; 25 °C, 0.1 (constant), sticky substrate): 6.2 ± 0.4 and 6.0 ± 0.1
pKa (His162 [2]; 25 °C): 6.2 ± 0.1
pKa (His162 [2]; 40 °C): 5.9 ± 0.1
pKa (Cys25 [3]): 9.76 ± 0.04

Cruzain covalently complexed with K11777 (Trypanosoma cruzi)
pKa (His162 [4]): 5.2–5.3

Papain (Carica papaya)
pKa (Cys25 [5]): 4.0
pKa (His159): 8.4

cruzain (Trypanosoma cruzi)
Km [6]: 38 ± 2 µM
kcat [6]: 0.89 ± 0.06 s⁻¹
kcat/Km [6]: 23000 ± 3000 M⁻¹ s⁻¹
Km [7]: 3.7 ± 0.4 µM
kcat [7]: 7.2 ± 0.1 s⁻¹
kcat/Km [7]: 1.9e+06 ± 200000 M⁻¹ s⁻¹
Km [8]: 0.62 ± 0.02 µM
kcat [8]: 17 ± 2 s⁻¹
kcat/Km [8]: 2.7e+07 ± 4e+06 M⁻¹ s⁻¹
